In patent US20150218281A1 (Ablynx, published 2015):

T1: cynomolgus OX40L expressed on CHO cells (cynomolgus monkey, UniProt P23510 1-183 (human entry))
T1 construct: also called cynoOX40L; CHO-cynoOX40L
T1 chain: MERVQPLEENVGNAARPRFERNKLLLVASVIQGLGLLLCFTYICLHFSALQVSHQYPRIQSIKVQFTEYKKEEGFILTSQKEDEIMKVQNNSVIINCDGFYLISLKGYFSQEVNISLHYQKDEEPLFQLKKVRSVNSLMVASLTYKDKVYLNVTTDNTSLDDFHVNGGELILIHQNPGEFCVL

T2: full length human OX40L expressed on CHO cells (human, UniProt P23510 1-183)
T2 construct: CHO K1 stably transfected as described for CAKI cells; also called CHO-hOX40L; hOX40L expressing CHO cells
T2 sequence: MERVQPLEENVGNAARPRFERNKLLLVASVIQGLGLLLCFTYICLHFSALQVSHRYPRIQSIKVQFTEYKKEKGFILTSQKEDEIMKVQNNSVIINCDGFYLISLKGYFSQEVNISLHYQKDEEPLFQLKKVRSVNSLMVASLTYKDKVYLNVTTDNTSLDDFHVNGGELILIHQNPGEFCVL

T3: recombinant human OX40L (extracellular domain, R&D Systems) (human, UniProt P23510 51-183)
T3 construct: also called hOX40L; rec. hOX40L
T3 sequence: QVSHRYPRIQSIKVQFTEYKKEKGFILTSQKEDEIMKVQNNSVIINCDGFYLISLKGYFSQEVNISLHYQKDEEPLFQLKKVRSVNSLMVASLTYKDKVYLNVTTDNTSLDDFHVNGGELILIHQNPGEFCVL

T4: biotinylated hOX40L (R&D Systems, biotinylated in house) (human, UniProt P23510 51-183, biotinylated with Sulfo-NHS-LC-Biotin, sites not stated)
T4 construct: same bought protein as m10, biotinylated; also called biotinylated OX40L
T4 sequence: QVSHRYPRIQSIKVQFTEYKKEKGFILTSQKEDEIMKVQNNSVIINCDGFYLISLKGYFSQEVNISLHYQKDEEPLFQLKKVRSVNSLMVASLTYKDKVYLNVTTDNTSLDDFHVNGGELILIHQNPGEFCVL

T5: human Receptor Activator for Nuclear Factor kappa B Ligand (human, UniProt O14788 143-317, limits assumed)
T5 construct: also called hRANKL; RANKL
T5 sequence (looked up): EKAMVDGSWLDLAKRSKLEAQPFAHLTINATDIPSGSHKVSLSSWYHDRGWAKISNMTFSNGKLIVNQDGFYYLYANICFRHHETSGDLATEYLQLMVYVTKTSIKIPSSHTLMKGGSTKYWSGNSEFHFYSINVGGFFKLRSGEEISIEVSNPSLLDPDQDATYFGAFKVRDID

T6: hCD30L (human, UniProt P32971 63-234)
T6 sequence (looked up): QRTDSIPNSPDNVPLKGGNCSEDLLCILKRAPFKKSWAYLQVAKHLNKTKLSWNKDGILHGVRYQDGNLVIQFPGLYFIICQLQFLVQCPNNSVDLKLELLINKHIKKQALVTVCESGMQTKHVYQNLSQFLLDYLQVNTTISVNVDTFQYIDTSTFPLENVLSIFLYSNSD

T7: hCD40L (human, UniProt P29965 113-261)
T7 sequence (looked up): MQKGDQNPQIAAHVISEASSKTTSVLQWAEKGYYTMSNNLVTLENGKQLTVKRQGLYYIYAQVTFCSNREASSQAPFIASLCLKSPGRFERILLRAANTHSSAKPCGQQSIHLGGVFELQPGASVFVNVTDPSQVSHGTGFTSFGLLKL


Key:
[1] = target: T1, cynomolgus OX40L expressed on CHO cells; assay: FACS binding to CHO cells, anti-c-myc detection
Experimental: (§1) Transfection of CHO K1 with the respective expression plasmid DNA and selection of clones with high expression levels was performed as described in Example 1. Binding of the Nanobodies to the cell surface expressed OX40L was assessed by FACS analysis of cells as described below.
(§2) After washing bound Nanobodies were detected in FACSArray™ using mouse anti-c-myc and PE conjugated goat anti-mouse IgG.

[2] = target: T2, full length human OX40L expressed on …; assay: FACS binding to CHO cells, anti-c-myc detection
Experimental: as §1, §2

[3] = target: T3, recombinant human OX40L (extracellular …); assay: SPR, second injection after competitor OX40L19A07
Experimental: (§3) In addition, it was investigated to what extend the 7 anti-OX40L Nanobodies have a different or identical or overlapping epitope. Standard conditions were as described above. […] 1300 RU. A dual injection was performed at 10 μl/min for 2 min, starting with 500 nM of the first Nanobody, followed by 500 nM of the second Nanobody. After 10 min dissociation, regeneration of the surface was performed by injection of 50 mM NaOH for 5-20 sec at 100 μl/min.

[4] = target: T4, biotinylated hOX40L (R&D Systems, …); assay: AlphaScreen, 31 pM biotinylated hOX40L + 80 pM OX40/Fc
Experimental: (§4) Next, streptavidin donor beads were added and incubated for an additional 1 hour. Fluorescence was measured by reading plates on the EnVision Multilabel Plate Reader using an excitation wavelength of 680 nm and an emission wavelength of 520 nm.

[5] = target: T2, full length human OX40L expressed on …; assay: cell-based or functional assay
[6] = target: T3, recombinant human OX40L (extracellular …); assay: SPR, second injection after competitor OX40L15B07
Experimental: as §3

[7] = target: T2, full length human OX40L expressed on …; assay: competition FACS, 3.1 nM hOX40/Fc on hOX40L expressing cells
[8] = target: T3, recombinant human OX40L (extracellular …); assay: SPR, second injection after competitor OX40L18E09
Experimental: as §3

[9] = target: T3, recombinant human OX40L (extracellular …); assay: SPR, second injection after competitor OX40L01E07
Experimental: as §3

[10] = target: T3, recombinant human OX40L (extracellular …); assay: SPR, second injection after competitor OX40L01B11
Experimental: as §3

[11] = target: T5, human Receptor Activator for Nuclear …; assay: competition ELISA on neutravidin captured biotinylated hOX40L
Experimental: (§5) The binding of OX40L blocking Nanobodies to other TNF family members was tested in a competition ELISA.
(§6) Detection was done using sTMB (SDT Reagents, Baesweiler, Germany), the reaction was stopped with 1M HCl and absorbance was determined at 450 nm.

[12] = target: T6, hCD30L; assay: as above
Experimental: as §5, §6

[13] = target: T7, hCD40L; assay: as above
Experimental: as §5, §6

[14] = target: T8, human tumor necrosis factor-related apoptosis inducing ligand (human, UniProt P50591 114-281); assay: as above
T8 construct: also called hTRAIL; TRAIL
T8 sequence (P50591 114-281 limits assumed): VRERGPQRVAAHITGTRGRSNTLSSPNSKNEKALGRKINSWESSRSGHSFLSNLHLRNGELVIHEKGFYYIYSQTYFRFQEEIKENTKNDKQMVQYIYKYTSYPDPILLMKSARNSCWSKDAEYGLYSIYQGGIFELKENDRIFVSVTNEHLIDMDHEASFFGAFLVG
Experimental: as §5, §6

[15] = target: hTNF-alpha (human, UniProt P01375 77-233); assay: as above
Chain of hTNF-alpha (P01375 77-233 limits assumed): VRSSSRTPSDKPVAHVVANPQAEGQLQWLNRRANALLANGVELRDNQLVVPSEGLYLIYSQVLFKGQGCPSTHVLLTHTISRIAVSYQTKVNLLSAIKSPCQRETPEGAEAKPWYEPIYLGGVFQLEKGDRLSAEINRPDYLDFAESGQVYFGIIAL
Experimental: as §5, §6

[16] = target: T3, recombinant human OX40L (extracellular …); assay: SPR, second injection after competitor OX40L19D08
Experimental: as §3

[17] = target: T3, recombinant human OX40L (extracellular …); assay: SPR, second injection after competitor OX40L01E10
Experimental: as §3

[18] = target: T4, biotinylated hOX40L (R&D Systems, …); assay: AlphaScreen, 120 pM biotinylated hOX40L + 0.2 nM hOX40/Fc
Experimental: as §4

[19] = target: T3, recombinant human OX40L (extracellular …); assay: SPR, after second injection of buffer HBS-EP+
Experimental: as §3

[20] = target: T2, full length human OX40L expressed on …; assay: competition FACS with hOX40/Fc on CHO-hOX40L
Experimental: The competition FACS assay was performed as described in example 2.

Row | EC50 [1] | EC50 [2] | Binding Level sample 2 (RU) [3] | Binding Level sample 2 - sample 1 (RU) [3] | IC50 [4] | IC50, IL4 production, T-cell activation assay, donor 1 [5] | IC50, IL4 production, T-cell activation assay, donor 2 [5] | Binding Level sample 2 (RU) [6] | Binding Level sample 2 - sample 1 (RU) [6] | IC50 [7] | Binding Level sample 2 (RU) [8] | Binding Level sample 2 - sample 1 (RU) [8] | Binding Level sample 2 (RU) [9] | Binding Level sample 2 - sample 1 (RU) [9] | Binding Level sample 2 (RU) [10] | Binding Level sample 2 - sample 1 (RU) [10] | Binder | binding result [11] | binding result [12] | binding result [13] | binding result [14] | other results
1 | 5.34 nM | 5.67 nM | 183 RU | 6 RU | 0.355 nM | 596 nM | 618 nM | 207 RU | 9 RU | 16.6 nM | 194 RU | 2 RU | 179 RU | -3 RU | 371 RU | 70 RU | OX40L19A07 (VHH, monovalent Nanobody from E. coli; not shown: C-terminal c-myc and His6 tag) VHH: EVQLVESGGGLVQAGGSLRLSCAASGFTLDDYAIAWFRQAPGKEREGVSRIKISNGRTTYAGSVKGRFTISSDNAKNTVYLQMNSLNAEDTAVYYCAADRSSLLFGSNWDRKARYDYWGQGTQVTVSS | no binding (tested: starting from 100 fold molar excess) | no binding (tested: starting from 100 fold molar excess) | no binding (tested: starting from 100 fold molar excess) | no binding (tested: starting from 100 fold molar excess) | binding result [15]: no binding (tested: starting from 100 fold molar excess); Binding Level sample 2 (RU) [16]: 205 RU; Binding Level sample 2 - sample 1 (RU) [16]: -24 RU; Binding Level sample 2 (RU) [17]: 239 RU; Binding Level sample 2 - sample 1 (RU) [17]: 12 RU; IC50 [18]: 0.54 nM; Binding Level sample 2 (RU) [19]: 160 RU; Binding Level sample 2 - sample 1 (RU) [19]: -15 RU; IC50 [20]: 13 nM
2 | 3.8 nM | 2.26 nM | 206 RU | 30 RU | 0.041 nM | 36 nM | 45 nM | 207 RU | 11 RU | 1.73 nM | 195 RU | 5 RU | 200 RU | 15 RU | 312 RU | -7 RU | OX40L18E09 (VHH, monovalent Nanobody from E. coli; not shown: C-terminal c-myc and His6 tag) VHH: EVQLVESGGGLVQAGGSLRLSCAASRNILSLNTMGWYRHAPGKPRELVARISSNSKTDYADSVKGRFTISRDNAKNTVLLQMNSLKPEDTGVYYCNLNVWRTSSDYWGQGTQVTVSS | no binding (tested: starting from 100 fold molar excess) | no binding (tested: starting from 100 fold molar excess) | no binding (tested: starting from 100 fold molar excess) | no binding (tested: starting from 100 fold molar excess) | IC50, IL4 production, T-cell activation assay, donor 3 [5]: 36 nM; IC50, IL4 production, T-cell activation assay, donor 4 [5]: 49 nM; binding result [15]: no binding (tested: starting from 100 fold molar excess); Binding Level sample 2 (RU) [16]: 225 RU; Binding Level sample 2 - sample 1 (RU) [16]: -3 RU; Binding Level sample 2 (RU) [17]: 245 RU; Binding Level sample 2 - sample 1 (RU) [17]: 21 RU; IC50 [18]: 0.112 nM; Binding Level sample 2 (RU) [19]: 168 RU; Binding Level sample 2 - sample 1 (RU) [19]: -16 RU; IC50 [20]: 2 nM
3 | 5.54 nM | 3.77 nM | 183 RU | 17 RU | 0.264 nM | 110 nM | 159 nM | 190 RU | 5 RU | 9.11 nM | 176 RU | -2 RU | 193 RU | 5 RU | 342 RU | -7 RU | OX40L01E10 (VHH, monovalent Nanobody from E. coli; not shown: C-terminal c-myc and His6 tag) VHH: EVQLVESGGGLVQAGDSLRLSCAASGLTFSSFAMGWFRQAPGKEREFVAAISRSGYGTSEADSVRDRFIISRDNAKNTVTLHLSRLKPEDTAVYYCAAEHTLGRPSRSQINYLYWGQGTQVTVSS | no binding (tested: starting from 100 fold molar excess) | no binding (tested: starting from 100 fold molar excess) | no binding (tested: starting from 100 fold molar excess) | no binding (tested: starting from 100 fold molar excess) | IC50, IL4 production, T-cell activation assay, donor 3 [5]: 27 nM; IC50, IL4 production, T-cell activation assay, donor 4 [5]: 12 nM; binding result [15]: no binding (tested: starting from 100 fold molar excess); Binding Level sample 2 (RU) [16]: 202 RU; Binding Level sample 2 - sample 1 (RU) [16]: -13 RU; Binding Level sample 2 (RU) [17]: 215 RU; Binding Level sample 2 - sample 1 (RU) [17]: 8 RU; IC50 [18]: 0.49 nM; Binding Level sample 2 (RU) [19]: 185 RU; Binding Level sample 2 - sample 1 (RU) [19]: -26 RU; IC50 [20]: 12 nM
